Measurements taken from patent US20120034215A1 (Daiichi Sankyo, published 2012).

Experiments:
[1] = molecular target: T1, mouse MST1R with N-terminal Flag tag, expressed on HEK293T cells (mouse, UniProt Q62190 24-1378); experiment: flow cytometry on HEK293T cells transfected with Flag-tagged mouse MST1R (expression shown by αFlag), FITC-labeled secondary antibody
T1 construct: ORF cloned excluding the signal peptide region; not shown: N-terminal Flag tag from vector pFLAG-myc-CMV-19 (Sigma)
T1 sequence: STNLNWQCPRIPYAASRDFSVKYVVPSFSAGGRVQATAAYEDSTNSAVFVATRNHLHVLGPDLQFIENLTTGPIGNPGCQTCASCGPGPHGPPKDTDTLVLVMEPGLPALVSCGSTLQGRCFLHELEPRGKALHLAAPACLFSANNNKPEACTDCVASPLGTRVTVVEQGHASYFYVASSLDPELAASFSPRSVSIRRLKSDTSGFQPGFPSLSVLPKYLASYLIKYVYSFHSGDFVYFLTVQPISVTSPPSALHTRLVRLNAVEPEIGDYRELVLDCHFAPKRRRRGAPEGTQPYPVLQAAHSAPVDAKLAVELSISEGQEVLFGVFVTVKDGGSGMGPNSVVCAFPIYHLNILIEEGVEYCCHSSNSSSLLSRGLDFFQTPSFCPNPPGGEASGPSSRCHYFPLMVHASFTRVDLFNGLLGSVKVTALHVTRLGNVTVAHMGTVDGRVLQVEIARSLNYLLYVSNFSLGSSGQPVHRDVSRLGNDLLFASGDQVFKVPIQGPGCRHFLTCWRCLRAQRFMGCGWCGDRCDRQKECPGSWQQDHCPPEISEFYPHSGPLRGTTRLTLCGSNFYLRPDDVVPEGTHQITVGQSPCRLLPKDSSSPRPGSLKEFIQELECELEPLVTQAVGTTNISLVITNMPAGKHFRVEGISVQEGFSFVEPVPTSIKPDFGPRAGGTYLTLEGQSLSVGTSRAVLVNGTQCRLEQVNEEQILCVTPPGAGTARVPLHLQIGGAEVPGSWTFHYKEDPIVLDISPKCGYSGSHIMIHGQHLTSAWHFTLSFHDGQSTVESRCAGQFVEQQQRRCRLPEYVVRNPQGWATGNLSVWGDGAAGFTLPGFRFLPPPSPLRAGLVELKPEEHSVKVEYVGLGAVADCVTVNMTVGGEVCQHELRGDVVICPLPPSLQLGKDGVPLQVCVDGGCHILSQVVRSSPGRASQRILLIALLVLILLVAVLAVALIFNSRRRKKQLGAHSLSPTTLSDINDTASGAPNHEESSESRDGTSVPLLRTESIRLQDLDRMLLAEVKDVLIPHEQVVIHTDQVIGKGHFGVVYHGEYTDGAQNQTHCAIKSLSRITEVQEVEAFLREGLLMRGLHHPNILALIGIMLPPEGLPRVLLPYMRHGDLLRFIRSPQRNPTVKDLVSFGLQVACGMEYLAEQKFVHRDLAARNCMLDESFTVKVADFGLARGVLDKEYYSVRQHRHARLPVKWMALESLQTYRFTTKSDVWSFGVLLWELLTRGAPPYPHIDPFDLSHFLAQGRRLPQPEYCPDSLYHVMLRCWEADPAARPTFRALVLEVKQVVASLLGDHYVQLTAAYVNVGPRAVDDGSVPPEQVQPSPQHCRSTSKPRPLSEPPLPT
Procedure: Cells (5×10⁵ cells/well) were incubated with Fab or IgG antibodies at the indicated concentrations in 50 μl FACS buffer (PBS, 5% FCS) for 60 min at 4° C. in round bottom 96-well culture plates (Corning). Cells were washed twice and then incubated with Fluorescein Isothiocyanate (FITC) conjugated detection antibody for 30 min at 4° C. Cells were washed again, resuspended in 0.3 ml FACS buffer and then analyzed by flow cytometry in a Cytomics FC500 (Beckman Coulter, Inc.). Data were analysed via FlowJo software (Tomy digital biology Co., Ltd.). Polyclonal goat anti-hMSP R IgG (R&D systems) or anti-FLAG M2 antibody (Sigma) was used as a positive control and MOR03207 (anti-lysozyme) antibody was used as a negative control.
FACS-analysis of MST1R ortholog-expressing cells: Human MST1R (cDNA nucleotide sequence is shown as GenBank Accession No: NM_{—}002447.2), cynomolgus monkey MST1R and mouse MST1R (cDNA nucleotide sequence is shown as GeneBank Accession No: NM_{—}009074.1) expression vector containing N-terminal Flag tag (pFLAG-myc-CMV-19, Sigma) were constructed. cDNA encoding cynomolgus monkey MST1R was amplified by PCR using cynomolgus monkey stomach cDNA as a template with forward and reverse primers having nucleotide sequences of SEQ ID NO: 34 and 35, respectively. By sequencing analysis of PCR product, the cynomolgus MST1R ORF nucleotide sequence was identified as shown in SEQ ID NO: 36. The corresponding amino acid sequence was shown in SEQ ID NO: 37. Then human, cynomolgus monkey and mouse MST1R ORF cDNA, excluding signal peptide regions, were amplified using respective forward and reverse primers having nucleotide sequences of SEQ ID NO: 38 and 39 (human), 40 and 41 (cynomolgus monkey), and 42 and 43 (mouse) with appropriate cloning sites and then cloned into pFLAG-myc-CMV-19. An amplified human MST1R fragment encodes amino acids corresponding to GenBank Accession No: NP_{—}002438.2 (SEQ ID NO: 45). A Mouse MST1R fragment encodes amino acids corresponding to GenBank Accession No: NP_{—}033100.1 (SEQ ID NO: 47) except for those amino acid differences at positions: 688 (Leu to Pro), 713 (Ile to Val), 714 (Ala to Gly) and 719 (Ala to Val). These expression vectors were transfected into HEK293T cells. For FACS-analysis, cells were incubated with 2 μg/ml primary antibodies followed by incubation with FITC-labeled secondary antibody as described above.

[2] = molecular target: MST1R on cells (293alpha cells transfected with pcDNA-DEST40 MST1R; endogenous on PC3, T-47D and BxPC-3 cells) (human, UniProt Q04912 25-1400); experiment: cell-based or functional assay

Row | Binder | binding result [1] | Reporter assay IC50 (ng/ml); Elk1 luciferase reporter gene assay in the presence of 100 ng/ml MSP [2] [ng/mL]
1 | MOR07923 (human IgG1) (antibody, V domains shown) VH: QVQLVESGGGLVQPGGSLRLSCAASGFTFNSYSMSWVRQAPGKGLEWVSYISSRSSTTYYADSVKGRFTISRDNSKNTLYLQMNSLRAEDTAVYYCARGYFHGMDYWGQGTLVTVSS VL: DIVLTQSPATLSLSPGERATLSCRASQSVSFDYLGWYQQKPGQAPRLLIYGASNRATGVPARFSGSGSGTDFTLTISSLEPEDFATYYCFQYLIVPFTFGQGTKVEIKR | no binding (tested: 2 µg/ml) | 9
2 | MOR07692 (human IgG1) (antibody, V domains shown) VH: QVQLVESGGGLVQPGGSLRLSCAASGFTFNSYSMSWVRQAPGKGLEWVSYISSRSSTTYYADSVKGRFTISRDNSKNTLYLQMNSLRAEDTAVYYCARGYFHGMDYWGQGTLVTVSS VL: DIVLTQSPATLSLSPGERATLSCRASQSVSFDYLGWYQQKPGQAPRLLIYGASNRATGVPARFSGSGSGTDFTLTISSLEPEDFATYYCQQYYNMPYTFGQGTKVEIKR | no binding (tested: 2 µg/ml) | 4.4
3 | MOR07924 (human IgG1) (antibody, V domains shown) VH: QVQLVESGGGLVQPGGSLRLSCAASGFTFNSYSMSWVRQAPGKGLEWVSYISSRSSTTYYADSVKGRFTISRDNSKNTLYLQMNSLRAEDTAVYYCARGYFHGMDYWGQGTLVTVSS VL: DIVLTQSPATLSLSPGERATLSCRASQSVSFDYLGWYQQKPGQAPRLLIYGASNRATGVPARFSGSGSGTDFTLTISSLEPEDFATYYCQQYNINPFTFGQGTKVEIKR | no binding (tested: 2 µg/ml) | 15.7
4 | MOR07925 (human IgG1) (antibody, V domains shown) VH: QVQLVESGGGLVQPGGSLRLSCAASGFTFNSYSMSWVRQAPGKGLEWVSYISSRSSTTYYADSVKGRFTISRDNSKNTLYLQMNSLRAEDTAVYYCARGYFHGMDYWGQGTLVTVSS VL: DIVLTQSPATLSLSPGERATLSCRASQSVSFDYLGWYQQKPGQAPRLLIYGASNRATGVPARFSGSGSGTDFTLTISSLEPEDFATYYCLQYFNPPHTFGQGTKVEIKR | no binding (tested: 2 µg/ml) | 5.9
5 | MOR07926 (human IgG1) (antibody, V domains shown) VH: QVQLVESGGGLVQPGGSLRLSCAASGFTFNSYSMSWVRQAPGKGLEWVSYISSRSSTTYYADSVKGRFTISRDNSKNTLYLQMNSLRAEDTAVYYCARGYFHGMDYWGQGTLVTVSS VL: DIVLTQSPATLSLSPGERATLSCRASQSVSFDYLGWYQQKPGQAPRLLIYGASNRATGVPARFSGSGSGTDFTLTISSLEPEDFATYYCFQALIMPFTFGQGTKVEIKR | no binding (tested: 2 µg/ml) | 11.4
